Measured values published in patent US7867732B2, “Isolated polypeptide binding to a sugar chain, polynucleotide encoding the polypeptide and use of the polypeptide and polynucleotide” (National University of Corporation Hiroshima University, priority 2005, dated 2011).
Converted amounts (≈) assume the structure as drawn.

B1: UEA-I: Ulex europaeus-derived lectin (protein)
chain: SDDLSFKFKNFSQNGKDLSFQGDASVIETGVLQLNKVGNNLPDETGGIARYIAPIHIWNCNTGEVASFITSFSFFMETSANPKAATDGLTFFLAPPDSPLRRAGGYFGLFEDTKDNDSSYQTVAVEFDTIGSPVNFDDPGFPHIGIDVNRVKSINAERWNKRYGLNNVANVEIIYEASSKTLTASLTYPSDQTSISVTSIVDLKEILPEWVSVGFSGGTYIGRQATHEVLNWYFTSNLINTNS
B2: BML-17: polypeptide (lectin) isolated from seaweed Bryopsis maxima; amino acid sequence of SEQ ID NO: 2 (protein, listed as Bryopsis maxima)
chain: VIYQDPVTSDMFAKIPMPGHRGPWYVCHSSGDWSRNEPVFGRCALDAKGMVEAYFPYGGKDIKWPSRWSAVLTTGVYWGKYNDWKQADCNGGQQVVDGGRGAVTVRMDGLSECKGWTTGKSSHNEVWFGCNGKEVGSWLSDTPASDVFPLCQEYGAAVKLVHMGRAFN
B3: ESA-2: Eucheuma serra-derived lectin (protein)
chain: GRYTVQNQWGGSSAPWNDAGLWILGSRGNQNVMAVDVNSSDGGANLNGTMTYSGEGPIGFKGARRGESNVYDVENQWGGSSAPWHAGGQFVIGSRSGQGVLAVNITSSDGGKTLTGTMTYEREGPIGFKGTQSGGDTYNVENQWGGSSAPWNKAGIWALGDRSGQAMIAMDVSSSDGGKTLEGTMQYKGEGPIGFRGKLSGANNYSVENQWGGSSAPWNAAGDWLIGDRHNQNITAVKVSSDNDGKNLDGTCTYEREGPIGFKGVATS

Tests used:
BML-17 [1] = experiment: Hemagglutination-inhibition test with BML-17 and trypsin-treated rabbit erythrocytes; assay type: cell-based, Bryopsis maxima
Procedure: (§1) Hemagglutinating activity was measured using a micro titer method. Twenty-five μl of serially two-fold dilutions of each purified fraction solution adjusted with saline was placed on a micro titer plate. Each diluted solution was supplemented with 25 μl of a 2% suspension of trypsin-treated rabbit erythrocytes and was gently stirred. The mixture was allowed to stand at room temperature for 1.5 hours and agglutination was observed. Agglutination was evaluated with naked eye. Agglutination of 50% or greater percentage of red blood cells was evaluated as positive. Agglutinating activity was given by agglutination titer, i.e., the protein concentration of maximum diluent showing agglutinating activity.
In this Example, trypsin-treated rabbit red blood cells (TRBC) were used as red blood cells. TRBC was prepared as follows. First, 2 ml of blood was collected from the ear of a rabbit kept in laboratory. The blood sample was washed 3 times with about 50 ml of saline, and was supplemented with 50 ml of saline to obtain a 2% rabbit blood cell suspension. The solution was supplemented with 1/10 volume of 0.5% trypsin in saline, and was allowed to stand at 37° C. for 1.5 hours. The trypsin-treated red blood cells were then washed 3 times with saline, and were supplemented with 45 ml of saline to obtain a 2% suspension of trypsin-treated rabbit erythrocytes (or blood cells) (TRBC).
Hemagglutination-inhibition test was performed according to the following procedure. First, each 25 μl of serially two-fold dilutions of sugar solution in saline was placed on a micro titer plate. The concentration of the original solutions of sugars examined was 100 mM for monosaccharides and oligosaccharides, and 2 mg/ml for glycoproteins. Each solution was mixed with 25 μl of BML-17 solution that had been adjusted to an agglutination titer of 4, and allowed to stand for 1.5 hours at room temperature after gentle stirring. Then, 25 μl of TRBC was added, and the mixture was allowed to stand for 2 hours at room temperature to observe hemagglutination inhibitory capability. The presence or absence of hemagglutination inhibitory capability was determined by naked eye. The test was positive when no hemagglutination occurred in about 100% of the red blood cells.
The hemagglutination inhibition test used D-glucose, D-galactose, D-mannose, N-acetyl-D-glucosamine, N-acetyl-D-galactosamine, D-xylose, L-fucose, fructose, lactose, and raffinose as monosaccharides and oligosaccharides. As glycoproteins, mucin (bovine submaxillary gland) and asialomucin, fetuin (type III, calf serum) and asialofetuin, transferrin (human) and asialotransferrin, α1-acid glycoprotein (human) and alialo-α1-acid glycoprotein, and yeast mannan were used.

BML-17 [2] = experiment: as above; assay type: cell-based, Bryopsis maxima; conditions: gel filtration active fractions instead of purified BML-17
asialotransferrin = target: T1, asialotransferrin (Homo sapiens, UniProt P02787); experiment: SPR kinetics analysis of affinity between lectins and immobilized asialotransferrin; assay type: binding
T1 construct: purchased SIGMA
T1 sequence (P02787 20-698): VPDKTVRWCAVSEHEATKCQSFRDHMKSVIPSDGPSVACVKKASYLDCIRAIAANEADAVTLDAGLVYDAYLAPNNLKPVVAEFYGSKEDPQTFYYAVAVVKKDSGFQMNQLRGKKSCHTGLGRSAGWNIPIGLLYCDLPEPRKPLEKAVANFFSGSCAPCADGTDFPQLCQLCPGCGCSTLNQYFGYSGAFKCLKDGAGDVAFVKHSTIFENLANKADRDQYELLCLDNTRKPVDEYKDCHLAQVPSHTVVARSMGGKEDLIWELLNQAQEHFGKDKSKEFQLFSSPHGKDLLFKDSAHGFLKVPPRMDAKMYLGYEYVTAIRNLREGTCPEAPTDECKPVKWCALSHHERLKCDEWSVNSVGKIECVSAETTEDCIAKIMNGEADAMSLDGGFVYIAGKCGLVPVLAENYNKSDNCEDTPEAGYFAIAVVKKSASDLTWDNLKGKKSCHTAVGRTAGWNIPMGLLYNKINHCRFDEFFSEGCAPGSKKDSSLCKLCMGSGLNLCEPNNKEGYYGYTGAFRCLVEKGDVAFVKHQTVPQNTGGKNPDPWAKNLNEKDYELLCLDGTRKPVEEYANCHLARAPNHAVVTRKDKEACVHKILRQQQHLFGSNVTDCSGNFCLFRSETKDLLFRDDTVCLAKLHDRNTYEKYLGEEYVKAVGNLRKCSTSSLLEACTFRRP
Procedure: (§2) Immobilization was performed according to manuals. Specifically, Taka-amylase A was immobilized using a surface thiol coupling method, and asialofetuin, bovine tyroglobulin, antibody, and BSA were immobilized using an amine coupling method. Each sample was immobilized in an amount within a range of 1000 RU to 1500 RU as adjusted by a manual injection method. Purity of the glycoprotein was confirmed by SDS-PAGE or MALDI-TOF-MS.
Affinity between each glycoprotein and each lectin was analyzed by SPR technique. Prior to analysis, preliminary analyses were made to assess analysis methods. […] Approximate KD values were calculated from a resulting sensorgram, and five or more steps of two-fold series dilutions of analyte (lectin) were prepared at target concentrations of 0.1 to 10 KD [M]. An analysis program was created using “Customized Application” according to the manual, and a subtraction function was used in which subtraction was made from flow cells that had glycoproteins immobilized thereon, from among four flow cells in the sensor chip. […] Under this analysis program, each analyte (lectin) solution was flown on the sensor chip at a flow rate of 30 μl/min for 3 minutes, and buffer was flown for 3 minutes to measure the amount of lectin that had bonded/dissociated. […]

[3] = tested on: chicken egg yolk antibody (chicken IgY antibody); experiment: Search for lectins that bind to chicken egg yolk antibody by SPR (Biacore 2000); assay type: binding; conditions: chicken IgY immobilized as ligand
Text: Assessment was made as to affinity of the different types of lectins and chicken egg yolk antibody (chicken IgY antibody). Briefly, using Biacore 2000 (BIACORE) that employs the principle of surface plasmon resonance method (hereinafter, “SPR method”), chicken egg yolk antibodies (chicken IgY antibodies) were immobilized as ligands on a sensor chip, and measurements were made according to manuals using each type of lectin solution as an analyte. The SPR technique allows for measurement of specific interactions between biomolecules both quickly and quantitatively, without labeling the biomolecules. According to this technique, the ligands are immobilized on a surface of the sensor chip, which is then supplemented with a solution of substance (analyte) that acts on the ligand. Slight changes in mass caused by the binding and dissociation of the molecules are then detected as changes in SPR signals. The mass change is represented by resonance unit (RU). One thousand RU is equivalent to a change in reflection angle of 0.1° caused by resonance, and it means that the analyte has bound to the ligand at 1 ng/mm^2. The surface of the sensor chip is coated with dextran, and the ligands are immobilized primarily via carboxyl groups that have been introduced into the dextran.
Note that, as permitted, the lectins tested as analytes were selected to have different sugar binding specificity. The chicken egg yolk antibody (chicken IgY antibodies) tested as ligands were obtained by purification from egg yolk, using Eggcellent Chicken IgY Purification Kit (Pierce Chem. Co. USA).

bovine tyroglogulin = target: T2, bovine tyroglogulin (Bos taurus, UniProt P01267); experiment: Elutability of lectins bound to a bovine tyroglobulin-immobilized chip (SPR); assay type: binding, cattle; conditions: 0.5 M D-mannose
T2 construct: purchased SIGMA
T2 sequence (P01267 20-2769): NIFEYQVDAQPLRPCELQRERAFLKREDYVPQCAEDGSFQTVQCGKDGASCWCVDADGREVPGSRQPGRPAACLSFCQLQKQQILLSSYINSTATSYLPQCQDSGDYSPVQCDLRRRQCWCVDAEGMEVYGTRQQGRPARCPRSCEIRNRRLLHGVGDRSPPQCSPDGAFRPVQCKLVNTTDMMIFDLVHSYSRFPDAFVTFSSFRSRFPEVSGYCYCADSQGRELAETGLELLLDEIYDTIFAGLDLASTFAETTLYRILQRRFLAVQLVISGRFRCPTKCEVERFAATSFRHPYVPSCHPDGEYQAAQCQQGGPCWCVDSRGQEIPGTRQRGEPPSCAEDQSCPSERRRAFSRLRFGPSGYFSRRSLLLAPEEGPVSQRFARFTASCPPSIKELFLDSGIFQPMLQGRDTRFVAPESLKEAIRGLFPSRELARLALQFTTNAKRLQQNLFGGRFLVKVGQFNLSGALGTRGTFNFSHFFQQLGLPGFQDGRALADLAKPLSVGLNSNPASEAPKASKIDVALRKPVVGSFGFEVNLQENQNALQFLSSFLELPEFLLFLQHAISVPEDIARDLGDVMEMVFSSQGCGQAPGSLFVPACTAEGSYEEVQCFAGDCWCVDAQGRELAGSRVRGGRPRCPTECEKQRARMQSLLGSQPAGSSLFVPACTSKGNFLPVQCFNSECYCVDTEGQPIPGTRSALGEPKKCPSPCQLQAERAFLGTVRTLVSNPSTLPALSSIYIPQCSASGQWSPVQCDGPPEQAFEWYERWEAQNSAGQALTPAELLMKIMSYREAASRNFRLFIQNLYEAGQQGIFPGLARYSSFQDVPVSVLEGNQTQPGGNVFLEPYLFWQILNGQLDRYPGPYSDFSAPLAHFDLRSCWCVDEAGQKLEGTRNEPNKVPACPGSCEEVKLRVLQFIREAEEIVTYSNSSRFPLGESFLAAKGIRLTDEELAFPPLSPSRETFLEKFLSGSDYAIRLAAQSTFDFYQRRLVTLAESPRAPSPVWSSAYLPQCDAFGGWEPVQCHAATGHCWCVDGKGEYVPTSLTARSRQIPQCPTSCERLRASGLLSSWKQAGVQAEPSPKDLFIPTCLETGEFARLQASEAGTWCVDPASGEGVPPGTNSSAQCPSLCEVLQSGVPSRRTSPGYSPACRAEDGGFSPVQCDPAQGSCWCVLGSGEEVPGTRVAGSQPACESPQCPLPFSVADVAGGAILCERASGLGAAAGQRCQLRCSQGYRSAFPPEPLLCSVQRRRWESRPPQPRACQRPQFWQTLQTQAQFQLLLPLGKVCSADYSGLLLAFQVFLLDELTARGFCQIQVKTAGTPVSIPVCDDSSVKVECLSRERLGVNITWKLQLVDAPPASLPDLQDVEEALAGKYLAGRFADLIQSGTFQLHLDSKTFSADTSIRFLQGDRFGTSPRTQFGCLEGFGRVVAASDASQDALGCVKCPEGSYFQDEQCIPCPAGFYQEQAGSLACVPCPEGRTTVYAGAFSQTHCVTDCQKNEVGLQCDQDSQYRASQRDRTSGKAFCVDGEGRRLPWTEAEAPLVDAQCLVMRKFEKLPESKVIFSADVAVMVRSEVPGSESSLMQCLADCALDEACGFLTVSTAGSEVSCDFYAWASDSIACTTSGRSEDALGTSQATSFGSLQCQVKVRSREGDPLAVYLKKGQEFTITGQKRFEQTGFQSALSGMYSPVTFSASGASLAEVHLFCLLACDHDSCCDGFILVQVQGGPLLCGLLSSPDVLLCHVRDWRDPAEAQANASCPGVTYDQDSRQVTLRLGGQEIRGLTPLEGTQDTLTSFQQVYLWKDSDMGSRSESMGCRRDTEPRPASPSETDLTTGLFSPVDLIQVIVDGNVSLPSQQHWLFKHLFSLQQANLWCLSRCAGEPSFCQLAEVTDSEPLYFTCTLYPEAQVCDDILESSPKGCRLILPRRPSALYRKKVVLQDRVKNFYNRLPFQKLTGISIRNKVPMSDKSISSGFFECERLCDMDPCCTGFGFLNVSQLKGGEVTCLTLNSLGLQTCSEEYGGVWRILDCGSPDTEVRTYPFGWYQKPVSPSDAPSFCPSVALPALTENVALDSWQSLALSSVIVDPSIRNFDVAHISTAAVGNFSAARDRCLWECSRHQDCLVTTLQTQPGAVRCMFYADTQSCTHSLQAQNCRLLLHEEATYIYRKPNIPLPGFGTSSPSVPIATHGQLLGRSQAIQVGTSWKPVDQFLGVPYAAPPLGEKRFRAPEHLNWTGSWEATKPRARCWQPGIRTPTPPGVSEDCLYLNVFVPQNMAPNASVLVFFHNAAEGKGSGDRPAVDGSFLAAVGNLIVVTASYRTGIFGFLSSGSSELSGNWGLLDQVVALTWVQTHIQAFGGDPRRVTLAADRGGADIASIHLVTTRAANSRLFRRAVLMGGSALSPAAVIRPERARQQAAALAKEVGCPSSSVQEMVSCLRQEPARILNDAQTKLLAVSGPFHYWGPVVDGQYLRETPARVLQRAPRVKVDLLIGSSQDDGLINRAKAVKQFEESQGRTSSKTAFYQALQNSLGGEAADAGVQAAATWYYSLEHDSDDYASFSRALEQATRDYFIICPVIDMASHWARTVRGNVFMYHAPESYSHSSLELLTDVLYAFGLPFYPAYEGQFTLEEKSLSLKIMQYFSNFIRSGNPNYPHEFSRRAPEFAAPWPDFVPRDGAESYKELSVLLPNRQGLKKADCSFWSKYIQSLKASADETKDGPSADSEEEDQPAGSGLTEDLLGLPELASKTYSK
Text: As in the case of chicken egg yolk antibody, a chip having immobilized thereon bovine tyroglogulin including the high-mannose-type sugar chain and the complex-type sugar chain was used to assess elutability of lectins that had bound to the chip. Note that, tyroglogulin was immobilized in a maximum amount (12,095 RU) on CM5 sensor chip, so as to make it easier to confirm specific binding and elution. Each solution of analyte (lectin) contained in HBS-EP (equilibriated) buffer (BIACORE) at a concentration of 100 μg/ml was flown at a flow rate of 5 μl/min until the amount of bonding reached equilibrium. After washing with HBS-EP buffer and the dissociation has reached equilibrium, 50 μl of 0.5 M D-mannose in the same buffer was injected. Based on the sensorgram, the amount of binding (RU) at the time when 50 μl (5 μg) of analyte (lectin) solution was injected was measured. Then, the amount of residual bonding (RU) of analyte (lectin) after buffer washing and elution with 50 μl of 0.5 M D-mannose was measured. The amount of residual bonding was given by percentage with respect to the maximum amount of bonding.
FIG. 3 represents the amount of residual bonding (%) of analyte (lectin) after the bonding, washing, and elution with 0.5 M D-mannose. FIG. 3 represents relative amounts of lectin that remain bonded to the chip after the dissociation with HBS-EP buffer, and relative amounts of lectin that remain after the elution with 0.5M D-mannose, when the amount of lectin binding to the bovine tyroglobulin immobilized chip exposed to the respective lectins is taken at 100%.

[4] = tested on: chicken egg yolk antibody (chicken IgY antibody); experiment: SPR kinetics analysis of affinity between lectins and immobilized chicken egg yolk antibody; assay type: binding; conditions: lectin as analyte; for Kd: read-out: Dissociation Constant KD
Procedure: as §2
Affinity between each glycoprotein and each lectin was analyzed by SPR technique. Prior to analysis, preliminary analyses were made to assess analysis methods. […] Approximate KD values were calculated from a resulting sensorgram, and five or more steps of two-fold series dilutions of analyte (lectin) were prepared at target concentrations of 0.1 to 10 KD [M]. An analysis program was created using “Customized Application” according to the manual, and a subtraction function was used in which subtraction was made from flow cells that had glycoproteins immobilized thereon, from among four flow cells in the sensor chip. […] Under this analysis program, each analyte (lectin) solution was flown on the sensor chip at a flow rate of 30 μl/min for 3 minutes, and buffer was flown for 3 minutes to measure the amount of lectin that had bonded/dissociated. Note that, an increase in RU during the time period from 10 seconds before addition of the analyte and to 10 seconds before the end of addition of analyte was given as the amount of bonding. A decrease in RU in the time period from 10 seconds after the addition of buffer to 10 seconds before the end of addition of buffer was given as the amount of dissociation.
Next, the sensor chip was washed with 0.5 M D-mannose, 10 mM glycine-HCl (pH 4.0), 50 mM HCl, and 10 mM NaOH for reproduction. Concerning the resulting sensorgram, the bonding phase and dissociation phase were fitted together with the curve to determine a bonding rate constant Ka, a dissociation rate constant kd, an affinity constant KA, and a dissociation constant KD.
Table 1 represents affinity constants of chicken egg yolk antibody and the various lectins. Table 1 represents bonding rate constant Ka (M^−1s^−1), dissociation rate constant Kd (s^−1), affinity constant KA (M^−1), and dissociation constant KD (M). The greater the affinity constant, the greater the affinity (stronger binding).

[5] = tested on: trypsin-treated rabbit red blood cell (TRBC); experiment: Temperature stability and pH stability of BML-17 by agglutinating activity; assay type: physicochemical; conditions: 30-minute heat treatment
Procedure: as §1
In this Example, trypsin-treated rabbit red blood cells (TRBC) were used as red blood cells. TRBC was prepared as follows. First, 2 ml of blood was collected from the ear of a rabbit kept in laboratory. The blood sample was washed 3 times with about 50 ml of saline, and was supplemented with 50 ml of saline to obtain a 2% rabbit blood cell suspension. The solution was supplemented with 1/10 volume of 0.5% trypsin in saline, and was allowed to stand at 37° C. for 1.5 hours. […]
Temperature stability and pH stability of BML-17 were evaluated, using agglutinating activity for trypsin-treated rabbit red blood cell (TRBC) as a measure.

Molecule | Inhibition of agglutinating activity of BML-17 (in words) (BML-17 [1]; TRBC) | Minimum inhibitory concentration (BML-17 [1]; monosaccharides and oligosaccharides, inhibition of BML-17 (agglutination titer 4) agglutination of TRBC) | Inhibition of agglutinating activity of the active fractions obtained by gel filtration (BML-17 [2]) | Affinity Constant KA (asialotransferrin) | Binding to chicken egg yolk antibody (in words) [3] | Elution of bound lectin with D-mannose (bovine tyroglogulin) | Affinity Constant KA [4] | Binding Rate Constant ka [4] | Dissociation Rate Constant kd [4] | Kd [4] | Temperature at which agglutinating activity attenuated [5]
O=C[C@@H](O)[C@@H](O)[C@H](O)[C@H](O)CO [D-Mannose] | inhibited | 12.5 mM (≈ 2250 µg/mL) | not inhibited at all | – | – | – | – | – | – | – | –
Con A: Canavallia ensiformis-derived lectin | – | – | – | 10^6 M^−1 | binding to chicken egg yolk antibody (chicken IgY antibodies) occurs | partially eluted with D-mannose | 1.87e+07 M⁻¹ | 467 M⁻¹ s⁻¹ | 2.49e-05 s⁻¹ | 53.4 nM | –
B1 | – | – | – | – | binding to chicken egg yolk antibody (chicken IgY antibodies) occurs | – | – | – | – | – | –
B2 | – | – | – | – | binding to chicken egg yolk antibody (chicken IgY antibodies) occurs | specifically and quantitatively eluted with D-mannose | 8.36e+07 M⁻¹ | 490000 M⁻¹ s⁻¹ | 0.00586 s⁻¹ | 12 nM | ≥ 60 °C
B3 | – | – | – | – | binding to chicken egg yolk antibody (chicken IgY antibodies) occurs | not eluted with D-mannose or any other eluents | 7.73e+07 M⁻¹ | 352000 M⁻¹ s⁻¹ | 0.00455 s⁻¹ | – | –
